Data taken from patent US20060276386A1 (published 2006).

Molecular target: T1, C-terminally FLAG-tagged full length UCH-L5 (mouse, UniProt Q9WUP7 1-329)
T1 construct: range 1-329; Co-expressed in HEK-293 cells and immunoprecipitated with an anti-FLAG monoclonal; also called UCH-L5 FLAG
T1 sequence: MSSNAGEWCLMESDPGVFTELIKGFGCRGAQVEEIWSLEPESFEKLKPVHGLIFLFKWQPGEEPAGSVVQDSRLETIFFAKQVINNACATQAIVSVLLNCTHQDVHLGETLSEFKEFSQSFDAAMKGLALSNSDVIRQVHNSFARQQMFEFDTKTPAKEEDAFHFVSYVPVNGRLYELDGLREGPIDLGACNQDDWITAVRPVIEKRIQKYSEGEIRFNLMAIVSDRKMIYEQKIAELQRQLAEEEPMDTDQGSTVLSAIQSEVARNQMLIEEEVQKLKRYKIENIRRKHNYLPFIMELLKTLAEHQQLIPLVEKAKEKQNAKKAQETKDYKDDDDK
Test: co-immunoprecipitation: anti-FLAG IP, anti-HA western blot, HEK-293 lysates
Experimental: C-terminally FLAG®-tagged UCH-L5 or UCH-L5ΔC were co-expressed in human embryonic kidney (HEK)—293 cells with N-terminally HA-tagged Smad proteins.
Referring to FIG. 3, HEK-293 cells were transfected with 20 μg of DNA construct directing the expression of UCH-L5 FLAG or UCH-L5ΔC FLAG and 20 μg of DNA construct expressing one of: HA-Smad 3₁₋₃₈₅; HA-Smad3₁₋₂₄₀; or HA-Smad3₁₋₄₄. Lysates of the cells were prepared by a standard detergent lysis method, using 1% Triton X-100 and then immunoprecipitated with an anti-FLAG monoclonal. The precipitated proteins were then subjected to SDS-PAGE.
For comparison, a blot of the same samples was then probed with a haemagglutinin-specific 1st antibody.

binding result: no binding
B1: N-terminally HA-tagged Smad3 residues 1-144 (other)
chain: MSSILPFTPPIVKRLLGWKKGEQNGQEEKWCEKAVKSLVKKLKKTGQLDELEKAITTQNVNTKCITIPRSLDGRLQVSHRKGLPHVIYCRLWRWPDLHSHHELRAMELCEFAFNMKKDEVCVNPYHYQRVETPVLPPVLVPRHT
notes: not shown: haemagglutinin (HA) tag, N-terminal
